From the supplement of paper PMC7125110
± gives the standard error. For some assays here: This sample holds only a part of the variants without activity.

B1: glmS ribozyme (parent)
chain: AUAAAAGCGCCAGAACUACAGAAAUGUAGUUGACGAGGAGGAGGUUUAUCGAAUUUUCGGCGGAUGCCUCCAAA

Tests used:
Settings in all cases: with glucosamine-6-phosphate
glucosamine-6-phosphate [1] = variants of: B1; assay: kcat; higher = faster cleavage; RNA array
How it was run: (§1)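 Weighted Michaelis–Menten fits across concentrations supplied kcat and KM, based on kobs from one- or two-exponential decay fits to normalised per-tile medians. The data came from barcoded ribozyme variants transcribed in situ by E. coli RNA polymerase on sequenced MiSeq chips and tracked at 37 °C by a hybridised Cy3 probe. Glucosamine-6-phosphate (40 μM to 10 mM) in HEPES/KCl/Mg(OAc)2 buffer was flowed in.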

glucosamine-6-phosphate [2] = variants of: B1; assay: self-cleavage kobs at 160 uM GlcN6P; higher = faster cleavage; RNA array
How it was run: as §1

glucosamine-6-phosphate [3] = variants of: B1; assay: self-cleavage kobs at 10000 uM GlcN6P; higher = faster cleavage; RNA array
How it was run: as §1

glucosamine-6-phosphate [4] = variants of: B1; assay: KM; higher = weaker cofactor use; RNA array
How it was run: as §1

glucosamine-6-phosphate [5] = variants of: B1; assay: self-cleavage kobs at 2500 uM GlcN6P; higher = faster cleavage; RNA array
How it was run: as §1

glucosamine-6-phosphate [6] = variants of: B1; assay: self-cleavage kobs at 40 uM GlcN6P; higher = faster cleavage; RNA array
How it was run: as §1

glucosamine-6-phosphate [7] = variants of: B1; assay: self-cleavage kobs at 640 uM GlcN6P; higher = faster cleavage; RNA array
How it was run: as §1

Variant	kcat (glucosamine-6-phosphate [1])	self-cleavage kobs at 160 uM GlcN6P (glucosamine-6-phosphate [2])	self-cleavage kobs at 10000 uM GlcN6P (glucosamine-6-phosphate [3])	KM (glucosamine-6-phosphate [4])	self-cleavage kobs at 2500 uM GlcN6P (glucosamine-6-phosphate [5])	self-cleavage kobs at 40 uM GlcN6P (glucosamine-6-phosphate [6])	self-cleavage kobs at 640 uM GlcN6P (glucosamine-6-phosphate [7])
A6U U30A A36C	< 1e-05 s⁻¹	< 1e-05 s⁻¹	< 1e-05 s⁻¹	–	–	–	–
C11A G62A	1.14e-05 ± 2e-06 s⁻¹	–	–	–	–	–	–
A6C A53U	8.96e-05 ± 2.4e-06 s⁻¹	–	6.61e-05 ± 1.1e-05 s⁻¹	3.6 ± 0.22 mM	3.64e-05 ± 7.4e-06 s⁻¹	–	–
A6U U56C	3.09e-05 ± 1.4e-06 s⁻¹	< 1e-05 s⁻¹	2.11e-05 ± 7.5e-06 s⁻¹	4.67 ± 0.59 mM	–	–	–
C8A C10A G38A C50G	5.64e-05 ± 2.2e-05 s⁻¹	8.75e-05 ± 1.8e-05 s⁻¹	3.67e-05 ± 1e-05 s⁻¹	–	–	3.68e-05 ± 1.4e-05 s⁻¹	9.23e-05 ± 1.7e-05 s⁻¹
C11A C16U	0.000159 ± 1.5e-05 s⁻¹	–	0.000151 ± 1.8e-05 s⁻¹	1.11 ± 0.34 mM	9.79e-05 ± 1.5e-05 s⁻¹	–	6.65e-05 ± 1.5e-05 s⁻¹
C11A U30G	0.000664 ± 7.4e-05 s⁻¹	–	0.000422 ± 9.6e-05 s⁻¹	6.14 ± 0.92 mM	0.000172 ± 5.6e-05 s⁻¹	–	6.39e-05 ± 1.1e-05 s⁻¹
C10G U46A	< 1e-05 s⁻¹	–	–	–	< 1e-05 s⁻¹	–	< 1e-05 s⁻¹
A6G C68U	0.000115 ± 2.9e-06 s⁻¹	–	0.000107 ± 1e-05 s⁻¹	0.728 ± 0.079 mM	8.68e-05 ± 1.5e-05 s⁻¹	–	5.56e-05 ± 1.1e-05 s⁻¹
A6C U56G	4.98e-05 ± 4.1e-06 s⁻¹	< 1e-05 s⁻¹	3.5e-05 ± 1.3e-05 s⁻¹	4.2 ± 0.92 mM	–	–	–
A6C U56A	4.08e-05 ± 9.7e-06 s⁻¹	–	3.34e-05 ± 7.8e-06 s⁻¹	–	–	–	–
A6G A53C U54A	5.34e-05 ± 9e-06 s⁻¹	< 1e-05 s⁻¹	4.91e-05 ± 9.2e-06 s⁻¹	–	5.76e-05 ± 1.9e-05 s⁻¹	< 1e-05 s⁻¹	–
A6U A23C U30G	5.38e-05 ± 1.9e-06 s⁻¹	–	4.19e-05 ± 1.6e-05 s⁻¹	2.78 ± 0.3 mM	–	–	–
G9A G37C	< 1e-05 s⁻¹	–	–	–	–	< 1e-05 s⁻¹	–
A6U G60A	< 1e-05 s⁻¹	–	–	–	–	–	< 1e-05 s⁻¹
C10G U56A	< 1e-05 s⁻¹	< 1e-05 s⁻¹	–	–	–	–	< 1e-05 s⁻¹
C10G C58U	< 1e-05 s⁻¹	–	< 1e-05 s⁻¹	–	–	< 1e-05 s⁻¹	< 1e-05 s⁻¹
A6G A12C	0.000313 ± 8.2e-05 s⁻¹	–	0.000159 ± 1.7e-05 s⁻¹	–	6.08e-05 ± 3e-05 s⁻¹	–	–

Variant	kcat (glucosamine-6-phosphate [1])	self-cleavage kobs at 160 uM GlcN6P (glucosamine-6-phosphate [2])	self-cleavage kobs at 10000 uM GlcN6P (glucosamine-6-phosphate [3])	KM (glucosamine-6-phosphate [4])	self-cleavage kobs at 2500 uM GlcN6P (glucosamine-6-phosphate [5])	self-cleavage kobs at 40 uM GlcN6P (glucosamine-6-phosphate [6])	self-cleavage kobs at 640 uM GlcN6P (glucosamine-6-phosphate [7])
A6C U54G	0.000119 ± 4.3e-06 s⁻¹	–	7.93e-05 ± 1.1e-05 s⁻¹	4.98 ± 0.41 mM	3.94e-05 ± 9.9e-06 s⁻¹	–	–
C8U C10U	< 1e-05 s⁻¹	–	–	–	–	< 1e-05 s⁻¹	< 1e-05 s⁻¹
C11A G44U G59U	0.000238 ± 5.3e-06 s⁻¹	–	0.000212 ± 4e-05 s⁻¹	1.33 ± 0.077 mM	0.00015 ± 4.7e-05 s⁻¹	–	7.85e-05 ± 2.2e-05 s⁻¹
A6G A42G	0.000724 ± 0.00013 s⁻¹	2.26e-05 ± 1.1e-05 s⁻¹	0.000569 ± 5.1e-05 s⁻¹	2.73 ± 0.96 mM	0.000329 ± 4.6e-05 s⁻¹	–	0.000175 ± 2.3e-05 s⁻¹
A6G A15G	0.000647 ± 5.3e-05 s⁻¹	3.49e-05 ± 1.1e-05 s⁻¹	0.000514 ± 5.4e-05 s⁻¹	2.54 ± 0.37 mM	0.000324 ± 4.3e-05 s⁻¹	–	0.000131 ± 1.7e-05 s⁻¹
C11A C68G	< 1e-05 s⁻¹	–	–	–	–	–	–
A6C U31G	2.39e-05 ± 9.7e-07 s⁻¹	–	1.74e-05 ± 5.6e-06 s⁻¹	3.73 ± 0.51 mM	–	–	–
A6U U55C	0.000167 ± 2.1e-06 s⁻¹	–	0.000148 ± 2.5e-05 s⁻¹	1.25 ± 0.045 mM	0.000112 ± 1.5e-05 s⁻¹	–	5.6e-05 ± 1.6e-05 s⁻¹
A6C A14G	0.000252 ± 8.5e-06 s⁻¹	–	0.000226 ± 2.3e-05 s⁻¹	1.22 ± 0.21 mM	0.000164 ± 3.1e-05 s⁻¹	–	–
G9A	3.95e-05 ± 2.5e-06 s⁻¹	< 1e-05 s⁻¹	2.61e-05 ± 1.5e-06 s⁻¹	5.14 ± 0.88 mM	1.33e-05 ± 3e-06 s⁻¹	< 1e-05 s⁻¹	–
G7A A39G	0.000288 ± 6.2e-05 s⁻¹	< 1e-05 s⁻¹	2.51e-05 ± 7.3e-06 s⁻¹	–	–	–	–
G9A C67A	< 1e-05 s⁻¹	< 1e-05 s⁻¹	–	–	–	< 1e-05 s⁻¹	–
G9A U45A	1.6e-05 ± 1.8e-06 s⁻¹	< 1e-05 s⁻¹	–	–	–	–	–
G9C C61G	0.00838 ± 0.0021 s⁻¹	0.000309 ± 5.7e-05 s⁻¹	0.00575 ± 0.00085 s⁻¹	4.33 ± 1.4 mM	0.00371 ± 0.00066 s⁻¹	9.12e-05 ± 1.6e-05 s⁻¹	0.000828 ± 0.00017 s⁻¹
A6U A53G	0.000783 ± 0.00011 s⁻¹	–	0.000404 ± 8.1e-05 s⁻¹	8.85 ± 1.5 mM	0.000178 ± 2.2e-05 s⁻¹	–	5.15e-05 ± 9e-06 s⁻¹
A6U A53U	0.000209 ± 3.5e-05 s⁻¹	–	0.000159 ± 2.3e-05 s⁻¹	2.57 ± 1.1 mM	0.000114 ± 1.6e-05 s⁻¹	–	–
G7C G37C	< 1e-05 s⁻¹	–	< 1e-05 s⁻¹	–	< 1e-05 s⁻¹	< 1e-05 s⁻¹	–
